The record followed here is patent publication US20160084821A1.

In the experiment the target is BRCA1 protein (mouse) (mouse) (UniProt P48754). Briefly: cell-based or functional assay.
Chain of UniProt P48754 (P48754 whole entry): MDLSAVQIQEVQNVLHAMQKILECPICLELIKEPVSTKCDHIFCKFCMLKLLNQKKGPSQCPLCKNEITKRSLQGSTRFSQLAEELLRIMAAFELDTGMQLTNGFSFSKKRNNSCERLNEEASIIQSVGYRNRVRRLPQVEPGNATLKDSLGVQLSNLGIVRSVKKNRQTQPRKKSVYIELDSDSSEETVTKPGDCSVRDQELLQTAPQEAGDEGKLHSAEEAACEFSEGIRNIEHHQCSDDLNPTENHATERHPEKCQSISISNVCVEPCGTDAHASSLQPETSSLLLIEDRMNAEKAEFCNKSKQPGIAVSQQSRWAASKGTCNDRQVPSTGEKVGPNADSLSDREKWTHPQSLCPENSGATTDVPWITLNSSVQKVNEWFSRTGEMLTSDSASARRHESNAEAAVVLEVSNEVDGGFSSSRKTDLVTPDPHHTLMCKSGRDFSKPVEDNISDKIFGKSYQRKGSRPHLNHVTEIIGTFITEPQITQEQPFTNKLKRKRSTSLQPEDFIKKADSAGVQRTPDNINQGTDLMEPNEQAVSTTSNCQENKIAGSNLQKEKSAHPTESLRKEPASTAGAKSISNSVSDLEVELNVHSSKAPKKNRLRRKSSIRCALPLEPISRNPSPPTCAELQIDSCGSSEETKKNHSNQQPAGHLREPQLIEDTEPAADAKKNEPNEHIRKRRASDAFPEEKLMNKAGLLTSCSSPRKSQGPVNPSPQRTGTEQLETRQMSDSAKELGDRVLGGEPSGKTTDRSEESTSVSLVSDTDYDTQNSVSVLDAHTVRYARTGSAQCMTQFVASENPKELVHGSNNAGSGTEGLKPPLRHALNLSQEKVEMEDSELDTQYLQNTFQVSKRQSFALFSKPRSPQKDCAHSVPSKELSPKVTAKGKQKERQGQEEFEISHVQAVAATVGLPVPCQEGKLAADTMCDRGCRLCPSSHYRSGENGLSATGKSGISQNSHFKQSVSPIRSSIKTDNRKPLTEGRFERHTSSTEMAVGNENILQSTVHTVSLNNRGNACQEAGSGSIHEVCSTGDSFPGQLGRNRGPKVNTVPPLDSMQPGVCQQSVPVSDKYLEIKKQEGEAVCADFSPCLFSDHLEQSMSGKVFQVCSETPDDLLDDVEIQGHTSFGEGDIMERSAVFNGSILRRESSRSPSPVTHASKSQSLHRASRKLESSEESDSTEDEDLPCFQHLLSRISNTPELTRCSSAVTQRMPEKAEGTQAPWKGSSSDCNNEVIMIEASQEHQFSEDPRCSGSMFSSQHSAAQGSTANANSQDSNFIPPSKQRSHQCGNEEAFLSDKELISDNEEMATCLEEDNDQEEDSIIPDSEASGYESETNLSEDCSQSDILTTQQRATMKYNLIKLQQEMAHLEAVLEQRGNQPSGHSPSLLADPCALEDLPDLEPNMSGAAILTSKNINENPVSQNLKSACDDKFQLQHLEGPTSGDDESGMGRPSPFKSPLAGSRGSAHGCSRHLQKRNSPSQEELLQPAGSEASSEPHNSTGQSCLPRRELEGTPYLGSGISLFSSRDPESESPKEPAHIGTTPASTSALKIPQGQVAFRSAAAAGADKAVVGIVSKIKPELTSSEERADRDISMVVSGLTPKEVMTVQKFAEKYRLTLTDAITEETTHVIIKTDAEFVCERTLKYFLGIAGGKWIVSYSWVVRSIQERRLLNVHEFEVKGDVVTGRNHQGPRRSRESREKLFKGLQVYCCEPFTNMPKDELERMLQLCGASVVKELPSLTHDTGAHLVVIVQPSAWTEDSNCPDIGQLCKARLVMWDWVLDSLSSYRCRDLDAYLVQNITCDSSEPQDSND

In turn, “FANCD2 protein (mouse, on meiotic chromosomes of spermatocytes) (from UniProt Q80V62 1-1450)” came in with an anti-FANCD2 foci co-localized with regions of intense anti-BRCA1 staining (20 pachytene nuclei) of 65%.
